Results from patent US20220289819A1 (GREEN CROSS, published 2022).
Values belong to the binder of their own block, whether it stands above or below them.

B3: hCEACAM1-Fc (Fc fusion)
chain: QLTTESMPFNVAEGKEVLLLVHNLPQQLFGYSWYKGERVDGNRQIVGYAIGTQQATPGPANSGRETIYPNASLLIQNVTQNDTGFYTLQVIKSDLVNEEATGQFHVYPELPKPSISSNNSNPVEDKDAVAFTCEPETQDTTYLWWINNQSLPVSPRLQLSNGNRTLTLLSVTRNDTGPYECEIQNPVSANRSDPVTLNVTYGPDTPTISPSDTYYRPGANLSLSCYAASNPPAQYSWLINGTFQQSTQELFIPNITVNNSGSYTCHANNSVTGCNRTTVKTIIVTELSPVVAKPQIKASKTTVTGDKDSVNLTCSTNDTGISIRWFFKNQSLPSSERMKLSQGNTTLSINPVKREDAGTYWCEVFNPISKNQSDPIMLNVNYNALPQENGLSPG
modifications: biotin-labeled when used as the soluble partner (sites not given)
notes: also called biotin-labeled hCEACAM1-Fc; not shown: pr

How the values were obtained:
[1] = molecular target: T1, hCEACAM1 (R&D Systems, Cat. No. 2244-CM) (human, UniProt P13688 35-428); test: not stated at this place; presumably the BLI of Experimental Example 4; summary statement in the description, no assay named
T1 construct: Anti-His (His1K) biosensors were used, which implies a His tag
T1 sequence: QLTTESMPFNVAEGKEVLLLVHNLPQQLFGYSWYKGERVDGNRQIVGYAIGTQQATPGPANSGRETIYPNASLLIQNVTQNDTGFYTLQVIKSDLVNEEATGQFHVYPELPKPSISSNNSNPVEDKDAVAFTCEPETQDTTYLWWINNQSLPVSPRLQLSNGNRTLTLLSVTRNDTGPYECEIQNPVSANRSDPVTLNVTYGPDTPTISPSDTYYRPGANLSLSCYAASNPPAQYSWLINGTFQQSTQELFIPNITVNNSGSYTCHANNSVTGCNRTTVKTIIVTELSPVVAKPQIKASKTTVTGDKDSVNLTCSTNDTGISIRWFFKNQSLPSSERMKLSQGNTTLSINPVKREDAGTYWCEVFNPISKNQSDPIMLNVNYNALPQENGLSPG

hCEACAM1-Fc [2] = molecular target: B3; test: competition ELISA, hCEACAM6-Fc coated, antibody pre-mixed with biotin-labeled hCEACAM1-Fc; blocked interaction hCEACAM1-Fc/hCEACAM6-Fc
Protocol: (§1) In another 96-well-plate, the anti-CEACAM1 antibody was serially diluted 2-fold starting from a concentration of 60 μg/mL and added into 11 wells, and the last well was added with only PBS (to which 1% BSA was added), and then biotin-labeled hCEACAM 1-Fc was added in the same amount as the diluted anti-CEACAM1 antibody to a concentration of 0.5 μg/mL, and reacted at room temperature for 1 hour. After 1 hour, 100 μL each of a mixture of the anti-CEACAM1 antibody and the biotin-labeled hCEACAM1-Fc were added to the blocked plate and reacted again at room temperature for 1 hour.
(§2) After 1 hour, each well was washed 3 times by adding 300 μL of PBS (to which 0.05% Tween 20 was added) thereto, and then streptavidin-peroxidase polymer (Sigma, S2438-250UG) was diluted at a 1:5,000 ratio in PBS (to which 1% BSA was added), and 100 μL each of the resultant was added to each well, and reacted at 37° C. for 40 minutes. Each well where the reaction was completed was washed 3 by adding 300 μL of PBS (to which 0.05% Tween 20 was added) thereto, and then 100 μL each of TMB microwell peroxidase substrate (KPL, 50-76-03) was added thereto, and reacted for 5 minutes. To terminate the reaction, an equal amount of sulfuric acid (Sigma-Aldrich, 339741) was added and the OD value was measured at 450 nm wavelength using an ELISA reader.

[3] = molecular target: T1, hCEACAM1 (R&D Systems, Cat. No. 2244-CM); test: BLI (Octet QKe), hCEACAM1 on anti-His biosensor, antibody 6.25-400 nM in solution
Protocol: Quantitative binding strength of the anti-CEACAM1 antibody to CEACAM1 was measured using the Octet QKe (Pall ForteBio). The anti-CEACAM1 antibody was subjected to a ½ concentration dilution 6 times at a concentration of 400 nM, and the antibodies at concentrations of 400 nM, 200 nM, 100 nM, 50 nM, 25 nM, 12.5 nM, and 6.25 nM were added into a Greiner 96-well-plate (Greiner, Cat. No. 655209) in an amount of 200 μL each in a row, and the last well was added at a concentration of 0 nM. In another row, hCEACAM1 (R&D Systems, Cat. No. 2244-CM) was diluted to a concentration of […], and was added in an amount of 200 μL each in a row.
Washing buffer, neutralization buffer, and baseline buffer were diluted 10 times with Reagent/Kinetics buffer (10×) (Fortebio, Cat. No. 18-1092) and was added in an amount of 200 μL in each row, and regeneration buffer was added in an amount of 200 μL in a row. A separate Greiner 96-well-plate was prepared, and Reagent/Kinetics buffer (IX) was added in an amount of 200 μL to as many wells as the number of biosensors to be used, and the Biosensors/Anti-His(His1K) (Fortebio, Cat. No. 18)-5120) Cassette was mounted.

hCEACAM1-Fc [4] = molecular target: B3; test: competition ELISA, hCEACAM1-Fc coated, antibody pre-mixed with hCCM1-Fc-biotin 500 ng/mL; blocked interaction hCEACAM1-Fc/hCEACAM1-Fc
Protocol: (§3) In another 96-well-plate, anti-CEACAM1 antibody was serially diluted 2-fold starting from a concentration of 60 μg/ml, and added into 11 wells, and the last well was added only with PBS to which 1% BSA was added, and then biotin-labeled hCEACAM1-Fc was added in the same amount as the anti-CEACAM1 antibody (which was diluted to 0.5 μg/mL), and reacted at room temperature for 1 hour. After 1 hour, 100 μL each of a mixture of the anti-CEACAM1 antibody and the biotin-labeled hCEACAM1-Fc were added to the blocked plate and reacted again at room temperature for 1 hour.
(§4) After 1 hour, each well was washed 3 times by adding 300 μL of PBS (to which 0.05% Tween 20 was added) thereto, and then streptavidin-peroxidase polymer (Sigma, S2438-250UG) was diluted at a 1:5,000 ratio in PBS (to which 1% BSA was added), 100 μL each of the resultant was added to each well, and reacted at 37° C. for 40 minutes. Each well where the reaction was completed was washed 3 times by adding 300 μL of PBS (to which 0.05% Tween 20 was added), and then 100 μL of TMB microwell peroxidase substrate (KPL, 50-76-03) was added thereto and reacted for 5 minutes. To terminate the reaction, an equal amount of sulfuric acid (Sigma-Aldrich, 339741) was added and the OD value was measured at 450 nm wavelength using an ELISA reader.

hCEACAM1-Fc [5] = molecular target: B3; test: competition ELISA: antibody titrated from 60 µg/mL, mixed with biotin-labeled hCEACAM1-Fc, added to coated hCEACAM1-Fc
Protocol: as §3, §4

hCEACAM1-Fc [6] = molecular target: B3; test: competition ELISA: antibody titrated from 60 µg/mL, mixed with biotin-labeled hCEACAM1-Fc, added to coated hCEACAM6-Fc
Protocol: as §1, §2

[7] = molecular target: T2, hCEACAM6-Fc (human), P40199; test: ELISA, coated hCEACAM6-Fc (2.5 µg/mL), biotin-labeled hCEACAM1-Fc titrated from 150 µg/mL; details: remark: other sources report otherwise
T2 chain: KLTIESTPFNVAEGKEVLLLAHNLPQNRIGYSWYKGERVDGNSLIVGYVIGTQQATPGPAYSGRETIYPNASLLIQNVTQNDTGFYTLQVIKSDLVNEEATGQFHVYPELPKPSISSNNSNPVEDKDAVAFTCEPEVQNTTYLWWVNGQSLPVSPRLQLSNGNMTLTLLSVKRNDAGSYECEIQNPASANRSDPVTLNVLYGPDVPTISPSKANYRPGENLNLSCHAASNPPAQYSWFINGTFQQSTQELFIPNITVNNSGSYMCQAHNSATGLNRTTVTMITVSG

[8] = molecular target: T2, hCEACAM6-Fc (human), P40199; test: ELISA, hCEACAM6-Fc coated, biotin-labeled hCEACAM1-Fc titrated, streptavidin-peroxidase detection; details: remark: other sources report otherwise
[9] = molecular target: the molecule itself; test: ELISA, hCEACAM1-Fc coated, biotin-labeled hCEACAM1-Fc titrated, streptavidin-peroxidase detection
Protocol: (§5) The hCEACAM1-Fc prepared in Example 5.1 was diluted with PBS to a concentration of 2.5 μg/mL, and then 100 μL each of the resultant was added into a NUNC immuno module (NUNC, 468667) plate and coated at 4° C. overnight. On the next day, after washing with PBS (to which 0.05% Tween 20 was added), 300 μL of PBS (to which 1% BSA was added) was added to each well of the coated plate, and blocking was performed by reacting at room temperature for 2 hours. In addition, after washing 3 times with PBS (to which 0.05% Tween 20 was added), biotin-labeled hCEACAM1-Fc was serially diluted 3-fold starting from a concentration of 150 μg/mL, and added into 11 wells in the plate coated with hCEACAM1-Fc. The last well was added only with PBS to which 1% BSA was added. The wells were reacted at 37° C. for 1 hour. After 1 hour, each well was washed 3 times by adding 300 μL of PBS (to which 0.05% Tween 20 was added), and then streptavidin-peroxidase polymer (Sigma, S2438-250UG) was diluted at a 1:5,000 ratio in PBS (to which 1% BSA was added), 100 μL each of the resultant was added into each well, and reacted at 37° C. for 40 minutes. […] To terminate the reaction, an equal amount of sulfuric acid (Sigma-Aldrich, 339741) was added and the OD value was measured at 450 nm wavelength using an ELISA reader.

[10] = molecular target: the molecule itself; test: ELISA, coated hCEACAM1-Fc (2.5 µg/mL), biotin-labeled hCEACAM1-Fc titrated from 150 µg/mL
Protocol: as §5

- Kd [1]: 3.36 nM
- IC50 (read off the curve) (hCEACAM1-Fc [2]): ~1 mg/L
- Kd [3]: 3.39 nM
- koff [3]: 0.000567 s⁻¹
- kon [3]: 163000 M⁻¹ s⁻¹
- IC50 (read off the curve) (hCEACAM1-Fc [4]): ~0.8 mg/L
- IC50 (hCEACAM1-Fc [5]): 1.05 mg/L
- IC50 (hCEACAM1-Fc [6]): 0.795 mg/L
B1: anti-CEACAM1 antibody (antibody, V domains shown)
VH: EVQLLESGGGLVQPGGSLRLSCAASGFTFSNYAMSWVRQAPGKGLEWVSVISHGGGSIYYADSVKGRLTISRDNSKNTLYLQMNSLRAEDTAVYYCARDPTKGYAPTFDYWGQGTLVTVSS
VL: QSVLTQPPSASGTPGQRVTISCSGSSSNIGNNYVSWYQQLPGTAPKLLIYADSRRPSGVPDRFSGSKSGTSASLAISGLRSEDEADYYCGAWDLSLNGYVFGGGTKLTVLG
notes: also called anti-CEACAM1 antibody according to an embodiment

- EC50 [7]: 0.305 mg/L
- EC50 (read off the curve) [8]: 0.3 mg/L
B2: hCEACAM1-Fc, P13688 35-428 (Fc fusion, not shown: a dimerising Fc or GST)
chain: QLTTESMPFNVAEGKEVLLLVHNLPQQLFGYSWYKGERVDGNRQIVGYAIGTQQATPGPANSGRETIYPNASLLIQNVTQNDTGFYTLQVIKSDLVNEEATGQFHVYPELPKPSISSNNSNPVEDKDAVAFTCEPETQDTTYLWWINNQSLPVSPRLQLSNGNRTLTLLSVTRNDTGPYECEIQNPVSANRSDPVTLNVTYGPDTPTISPSDTYYRPGANLSLSCYAASNPPAQYSWLINGTFQQSTQELFIPNITVNNSGSYTCHANNSVTGCNRTTVKTIIVTELSPVVAKPQIKASKTTVTGDKDSVNLTCSTNDTGISIRWFFKNQSLPSSERMKLSQGNTTLSINPVKREDAGTYWCEVFNPISKNQSDPIMLNVNYNALPQENGLSPG
modifications: here or on the partner: biotin-labeled when used as the soluble partner (sites not given)

Binder: B3
- EC50 (read off the curve) [9]: ~0.3 mg/L
- EC50 [10]: 0.286 mg/L
